Sequences and labels used below:
B1: LH2 α-polypeptide of the Rhodobacter sphaeroides light-harvesting 2 (LH2) complex (natural protein, Rhodobacter sphaeroides 2.4.1, UniProt Q3J144 1-54, looked up)
chain: carboxyl-MTNGKIWLVVKPTVGVPLFLSAAVIASVVIHAAVLTTTTWLPAYYQGSAAVAAE
notes: Met1 is the N-terminus in the structure; nine copies form the inner ring; also called α-apoprotein
B2: LH2 β-polypeptide of the Rhodobacter sphaeroides light-harvesting 2 (LH2) complex (natural protein)
chain: not shown
notes: Gly51 is the C-terminus; N-terminal, transmembrane and C-terminal regions of 14, 32 and 5 residues; nine copies form the outer ring

Data set [1] deals with the molecule itself. The experiment in a line: cryo-EM structure; single-particle cryo-EM of the LH2 complex purified from membranes in 20 mM HEPES pH 7.8 with 0.1% LDAO; C9 symmetry imposed; 2.1 Å.
Data set [2] concerns the target B1. The data set is described as above. As to conditions: both partners purified.

Ends that are not written are not given here.

As for B1, in data set [1], the “stoichiometry N” value was found to be 9.
Take B2: the “stoichiometry N” value in data set [1] amounted to 9. For the same molecule, in data set [2], the binding result is recorded as “binds”.

As a reminder, the stoichiometry N is the number of molecules, sites or subunits per partner or assembly.

For the origin of these results see PMC8775250, “Cryo-EM Structure of the Rhodobacter sphaeroides Light-Harvesting 2 Complex at 2.1 Å” (Biochemistry, 2021).
